Assay results as given in the supplement of paper PMC7125110.
± gives the standard error. This sample holds only a part of the variants without activity.

B1: glmS ribozyme (parent)
chain: AUAAAAGCGCCAGAACUACAGAAAUGUAGUUGACGAGGAGGAGGUUUAUCGAAUUUUCGGCGGAUGCCUCCAAA

Experiments:
Settings in all cases: with glucosamine-6-phosphate
glucosamine-6-phosphate [1] = variants of: B1; assay: self-cleavage kobs at 160 uM GlcN6P; higher = faster cleavage; RNA array
In short: (§1)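 On sequenced MiSeq chips, barcoded ribozyme variants were made in situ by E. coli RNA polymerase and followed at 37 °C through a hybridised Cy3 probe. Glucosamine-6-phosphate was flowed in at 40 μM to 10 mM in HEPES/KCl/Mg(OAc)2 buffer. Exponential fits to normalised per-tile medians gave kobs, and weighted Michaelis–Menten fits gave kcat and KM.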

glucosamine-6-phosphate [2] = variants of: B1; assay: self-cleavage kobs at 640 uM GlcN6P; higher = faster cleavage; RNA array
In short: as §1

glucosamine-6-phosphate [3] = variants of: B1; assay: self-cleavage kobs at 2500 uM GlcN6P; higher = faster cleavage; RNA array
In short: as §1

glucosamine-6-phosphate [4] = variants of: B1; assay: self-cleavage kobs at 10000 uM GlcN6P; higher = faster cleavage; RNA array
In short: as §1

| Variant | self-cleavage kobs at 160 uM GlcN6P (glucosamine-6-phosphate [1]) [s⁻¹] | self-cleavage kobs at 640 uM GlcN6P (glucosamine-6-phosphate [2]) [s⁻¹] | self-cleavage kobs at 2500 uM GlcN6P (glucosamine-6-phosphate [3]) [s⁻¹] | self-cleavage kobs at 10000 uM GlcN6P (glucosamine-6-phosphate [4]) [s⁻¹] |
| --- | --- | --- | --- | --- |
| A14C G32U A52C | < 1e-05 | < 1e-05 | < 1e-05 | – |
| A15G U45A U56G A64C C70A | < 1e-05 | < 1e-05 | < 1e-05 | – |
| C16U A53G U54C | 0.000683 ± 0.00013 | 0.00193 ± 0.00028 | 0.00421 ± 0.00075 | – |
| A14G U56G U57C | 3.78e-05 ± 1.6e-05 | 5.18e-05 ± 1.5e-05 | 0.000269 ± 8.2e-05 | – |
| A14G U30A G32A C68A | < 1e-05 | – | – | – |
| A14G C58G U69A | 3.98e-05 ± 2e-05 | 8.05e-05 ± 3.6e-05 | 3.74e-05 ± 1.9e-05 | – |
| A14U G29A G63U | < 1e-05 | – | < 1e-05 | – |
| G32A G44C G66A C68A | < 1e-05 | < 1e-05 | < 1e-05 | – |
| U30G U47G | 0.000169 ± 4.9e-05 | 0.00043 ± 0.00012 | 0.00098 ± 0.0002 | – |
| A12U A14C C71U | 0.000143 ± 4.4e-05 | – | 0.00169 ± 0.00033 | – |
| U31G G32A | 2.88e-05 ± 1.4e-05 | 0.000366 ± 7.2e-05 | 0.000689 ± 0.00016 | 0.00185 ± 0.00031 |
| G29C U30C G37C C70G | 9.14e-05 ± 2.9e-05 | 0.000358 ± 0.00011 | 0.000111 ± 3.5e-05 | – |
| G29U A33U U54G | < 1e-05 | – | – | – |
| C16U A39C A48U | < 1e-05 | – | – | – |
| A12U C16U U54A | 0.00397 ± 0.00072 | 0.00766 ± 0.0025 | – | – |
| G32A G43A G63C | < 1e-05 | – | < 1e-05 | – |
| A12U U46C C67A | 0.00011 ± 2.6e-05 | – | 0.00113 ± 0.0002 | – |
| A15U G43U U56A C68A | 0.000115 ± 3.5e-05 | – | 0.00532 ± 0.0014 | – |
| G29C U46G U47A C70G | 5.51e-05 ± 2.1e-05 | 0.00011 ± 3.9e-05 | 6.12e-05 ± 2.5e-05 | – |
| G29A U31C C34U | < 1e-05 | < 1e-05 | < 1e-05 | – |
| G32U G38U U54G | < 1e-05 | – | – | – |
| U31C U54A C67G | 3.53e-05 ± 9.2e-06 | 8.75e-05 ± 2.2e-05 | 7.96e-05 ± 1.7e-05 | – |
| U31G G35C U46A C70G | < 1e-05 | < 1e-05 | < 1e-05 | – |
| G32U G38U G43U A53U | < 1e-05 | < 1e-05 | – | – |
| U30A G40C U49G | < 1e-05 | < 1e-05 | < 1e-05 | – |
| U30A U54C C71U | 0.000251 ± 5.9e-05 | 0.00109 ± 0.00025 | 0.00391 ± 0.0014 | – |
| A15C G35U C70U | < 1e-05 | – | – | – |

| Variant | self-cleavage kobs at 160 uM GlcN6P (glucosamine-6-phosphate [1]) [s⁻¹] | self-cleavage kobs at 640 uM GlcN6P (glucosamine-6-phosphate [2]) [s⁻¹] | self-cleavage kobs at 2500 uM GlcN6P (glucosamine-6-phosphate [3]) [s⁻¹] | self-cleavage kobs at 10000 uM GlcN6P (glucosamine-6-phosphate [4]) [s⁻¹] |
| --- | --- | --- | --- | --- |
| A14C U47G C70A | 6.05e-05 ± 2.8e-05 | 0.000114 ± 3.4e-05 | 6.72e-05 ± 1.5e-05 | – |
| U31C G63A | < 1e-05 | – | – | < 1e-05 |
| A14G U49A U56A G62A C71U | < 1e-05 | – | – | – |
| G32A U56G | 9.78e-05 ± 3.6e-05 | 0.000151 ± 2e-05 | 0.000254 ± 3.2e-05 | 0.000906 ± 8.9e-05 |
| C16G G44C | < 1e-05 | < 1e-05 | – | – |
| A28G U30G C67U C71U | 4.89e-05 ± 2e-05 | 7.62e-05 ± 1.3e-05 | 0.000204 ± 5.3e-05 | – |
| A15C A33U A36C A48C | < 1e-05 | < 1e-05 | < 1e-05 | – |
| A15G G41U G62U | < 1e-05 | < 1e-05 | < 1e-05 | – |
| G13A C50G | 0.000122 ± 3.1e-05 | 0.000253 ± 0.00011 | 4.08e-05 ± 1.9e-05 | – |
| A12U C34U A36U U55G | < 1e-05 | < 1e-05 | – | < 1e-05 |
| C16U G32A G51U | < 1e-05 | – | – | – |
| G29A G40C U55A U56G C67U | < 1e-05 | < 1e-05 | < 1e-05 | – |
| C16A G59A C70G | 9.32e-05 ± 3.1e-05 | – | – | – |
| C16G G59C A64C | < 1e-05 | – | – | – |
| G26U G29A U54A C70U C71U | 0.000121 ± 3.5e-05 | – | 5.37e-05 ± 2.3e-05 | – |
| C16U G41C G43C A48U U57C | < 1e-05 | – | < 1e-05 | – |
| G29U G44C | < 1e-05 | – | – | – |
| A15C C50G G66U | 5.42e-05 ± 1.8e-05 | – | – | – |
| G13C A48G C71U | < 1e-05 | – | – | – |
| G32U A42U | < 1e-05 | < 1e-05 | – | – |
| A14U A33C G59A | < 1e-05 | < 1e-05 | < 1e-05 | – |
| U31A G38A A42C | < 1e-05 | < 1e-05 | – | – |
| U30G G38C | < 1e-05 | < 1e-05 | < 1e-05 | – |
| U30A G35C | < 1e-05 | < 1e-05 | < 1e-05 | < 1e-05 |
| G13A G35U G66U C67G | < 1e-05 | – | < 1e-05 | – |
| C16A G35U G37U U65G | < 1e-05 | < 1e-05 | – | – |
